Legend:
Experiment in all cases: inferred by the filing from p-STAT5 flow cytometry on humanized mouse splenocytes
[1] = target: T1, Mouse recombinant interleukin 2 (mIL2) (mouse, UniProt P04351 21-169)
T1 construct: Bought reagent; also called recombinant mouse IL2; mouse IL2
T1 sequence (looked up): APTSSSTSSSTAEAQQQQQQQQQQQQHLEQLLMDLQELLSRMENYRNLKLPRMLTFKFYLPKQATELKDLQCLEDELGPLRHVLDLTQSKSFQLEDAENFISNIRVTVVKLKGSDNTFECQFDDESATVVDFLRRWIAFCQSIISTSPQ
Description: (§1) p-STAT5 is a known downstream signal in the IL2/IL2RA-mediated signaling pathway. Thus, the level of p-STAT5 in the IL2RA gene humanized mice can be detected to verify whether the IL2/IL2RA signaling pathway is functional in the humanized mice. Spleen cells from 14-week old wild-type C57BL/6 mice and IL2RA gene humanized homozygous mice were isolated (5×10⁵ cells/well, 4 wells each) and incubated in a 37° C. incubator for 30 minutes. […] Then, the stimulated cells were stained by APC Rat Anti-Mouse CD3 Molecular Complex, permeabilized, and stained by Phospho-Stat5 (Tyr694) (D47E7) XP® Rabbit mAb and Anti-rabbit IgG (H+L), F(ab′)2 Fragment (Alexa Fluor® 488 Conjugate), followed by flow cytometry analysis.

mouse IL2RB = target: T2, mouse IL2RB (mouse, UniProt P16297 27-539)
T2 construct: whole, on cells; also called CD122
T2 sequence (looked up): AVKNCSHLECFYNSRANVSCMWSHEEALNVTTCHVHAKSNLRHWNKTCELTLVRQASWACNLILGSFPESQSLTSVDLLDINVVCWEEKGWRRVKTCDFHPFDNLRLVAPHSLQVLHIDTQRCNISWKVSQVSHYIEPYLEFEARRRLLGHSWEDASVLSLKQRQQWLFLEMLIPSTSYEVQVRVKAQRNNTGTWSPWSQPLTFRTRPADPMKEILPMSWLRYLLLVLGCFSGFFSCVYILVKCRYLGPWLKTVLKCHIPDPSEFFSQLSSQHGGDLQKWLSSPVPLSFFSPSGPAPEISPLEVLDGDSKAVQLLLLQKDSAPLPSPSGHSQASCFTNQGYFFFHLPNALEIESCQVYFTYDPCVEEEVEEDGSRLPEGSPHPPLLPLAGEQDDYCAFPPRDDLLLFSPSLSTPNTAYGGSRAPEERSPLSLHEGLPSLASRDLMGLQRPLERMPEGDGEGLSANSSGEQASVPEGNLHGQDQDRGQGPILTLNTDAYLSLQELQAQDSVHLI
Description: as §1

mouse IL2RG = target: T3, mouse IL2RG (mouse, UniProt P34902 23-369)
T3 construct: whole, on cells; also called CD132; common gamma chain
T3 sequence (looked up): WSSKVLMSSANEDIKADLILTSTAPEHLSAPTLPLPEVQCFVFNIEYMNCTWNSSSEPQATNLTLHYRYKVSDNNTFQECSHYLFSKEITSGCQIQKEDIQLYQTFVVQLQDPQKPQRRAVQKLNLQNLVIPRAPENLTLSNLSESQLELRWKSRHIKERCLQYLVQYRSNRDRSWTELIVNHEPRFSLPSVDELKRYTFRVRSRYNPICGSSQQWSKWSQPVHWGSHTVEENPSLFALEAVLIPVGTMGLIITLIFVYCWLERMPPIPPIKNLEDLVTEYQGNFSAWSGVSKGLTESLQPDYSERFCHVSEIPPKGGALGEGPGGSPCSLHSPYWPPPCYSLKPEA
Description: as §1

Measured: binding result

B1: humanized IL2RA protein (chimeric human/mouse IL2RA expressed by B-hIL2RA mice) (receptor)
chain: ELCDDDPPEIPHATFKAMAYKEGTMLNCECKRGFRRIKSGSLYMLCTGNSSHSSWDNQCQCTSSATRNTTKQVTPQPEEQKERKTTEMQSPMQPVDQASLPGHCREPPPWENEATERIYHFVVGQMVYYQCVQGYRALHRGPAESVCKMTHGKTRWTQPQLICTGEMETSQFPGEEKPQASPEGRPESETSCLVTTTDFQIQTEMAATMETSIFTTEYKVAVASCLFLLISILLLSGLTWQHRWRKSRRTI
notes: also called chimeric IL2RA; engineered mouse IL2RA after humanization
binds: all assays above
